Data reported in publication PMC4333400 (Nucleic Acids Research, 2015).
Like-named read-outs stand apart in the source and are kept apart here.

Key:
EcMazE full-length = EcMazE full-length (Escherichia coli, UniProt P0AE72 1-82); experiment: ITC
EcMazE1-50 [1] = biological target: T1, EcMazE1-50 (Escherichia coli, UniProt P0AE72 1-50); experiment: ITC
T1 chain: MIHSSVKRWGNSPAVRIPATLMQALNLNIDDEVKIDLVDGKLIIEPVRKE

NMR solution structure = biological target: the molecule itself; experiment: NMR solution structure
EcMazE1-50 [2] = biological target: T1, EcMazE1-50; experiment: ITC
EcMazE1-50 [3] = biological target: T1, EcMazE1-50; experiment: NMR
[4] = biological target: EcMazE full-length;EcMazF (Escherichia coli;Escherichia coli, UniProt P0AE72;P0AE70 1-82;1-111, |); experiment: EMSA
Chain of EcMazE full-length;EcMazF (P0AE70 whole entry, one chain of several): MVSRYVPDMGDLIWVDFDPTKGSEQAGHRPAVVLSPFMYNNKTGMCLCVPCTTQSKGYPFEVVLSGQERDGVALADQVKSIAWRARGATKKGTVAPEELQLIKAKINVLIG

Chain of EcMazE full-length (P0AE72 whole entry): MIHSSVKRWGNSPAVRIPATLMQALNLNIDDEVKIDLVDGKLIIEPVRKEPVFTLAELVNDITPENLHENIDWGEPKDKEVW

B1: DNA 'a' (14 bp) (dsDNA)
DNA 1: TTGATATATACTGT
DNA 2: ACAGTATATATCAA
EcMazE full-length
  Kd: 5.1 ± 0.2 µM
EcMazE1-50 [1]
  Kd: 5.6 ± 0.3 µM

B2: DNA 'b' (dsDNA)
DNA 1: ATATACTGTATCTACATAT
DNA 2: ATATGTAGATACAGTATAT
EcMazE1-50 [1]
  Kd: 2.1 ± 0.6 µM

## MIHSSVKRWGNSPAVRIPATLMQALNLNIDDEVKIDLVDGKLIIEPVRKE (domain or fragment) [truncated EcMazE^1–50 (N-terminal DNA binding domain of Escherichia coli antitoxin MazE)]
NMR solution structure
  stoichiometry N: 2

B3: DNA 'cab' (dsDNA)
DNA 1: CTCGTATCTACAATGTAGATTGATATATACTGTATCTACATATGATAGCGT
DNA 2: ACGCTATCATATGTAGATACAGTATATATCAATCTACATTGTAGATACGAG
EcMazE1-50 [2]
  Kd: 0.6 ± 0.5 µM

B4: DNA 'a' (15 bp, altered ends) (dsDNA)
DNA 1: CGTGATATATACTGC
DNA 2: GCAGTATATATCACG
EcMazE1-50 [3]
  binding result: binds

B5: DNA 'c' (dsDNA)
DNA 1: GTATCTACAATGTAGATTG
DNA 2: CAATCTACATTGTAGATAC
EcMazE1-50 [1]
  Kd: 0.6 ± 0.2 µM

B6: DNA 'a' (EMSA probe) (dsDNA)
DNA 1: TTGATATATACTGT
DNA 2: ACAGTATATATCAA
[4]
  binding result: binds
